For test [1], the target named is human EGFR (huEGFR) over-expressed on mcl-1-/- mouse embryonic fibroblasts (human, UniProt P00533 25-1210). In words: cell-based or functional assay.
For test [2], the target named is EGFR on EGFR positive non-small cell lung cancer cells NCI-H1650 (UniProt P00533 25-1210). The test can be described thus: cell-based or functional assay.

Where a chain is given by its changes, count along the chain named. Where only a bound is given, the exact number is not on record here.

B1: AbK-SR (antibody, human IgG1, kappa, V domains shown)
VH: EVQLQESGPGLVKPSQTLSLTCTVSGYSISRDFAWNWIRQPPGKGLEWMGYISYNGNTRYQPSLKSRITISRDTSKNQFFLKLNSVTAADTATYYCVTASRGFPWWGQGTLVTVSS
VL: DIQMTQSPSSMSVSVGDRVTITCHSSQDITYNVGWLQQKPGKSFKGLIYHGSNLDHGVPSRFSGSGSGTDYTLTISSLQPEDFATYYCVQYDDFPWTFGGGTKLEIKR
modifications: synthon SR on reduced interchain cysteines; average DAR 2.3 per ADC
As to B1, the “huEGFR+ mcl-1-/- MEF EC50” value in test [1] worked out at 0.0089 µM. Besides, in test [2], the “H1650 CTG-3D EC50” value is 1.74 µg/mL and the “H1650 GFP Flourescence EC50” value was determined as 1.36 µg/mL.

B2: AbA-AAD (antibody, human IgG1, kappa, V domains shown)
VH: B1 VH with W105Y
VL: B1 VL with T30N, Y31S, V33I, S52T, H56D, D92A, D93Q
modifications: synthon AAD on reduced interchain cysteines; average DAR 3.3 per ADC
Regarding B2, in test [1], the “huEGFR+ mcl-1-/- MEF EC50” value is 0.065 µM. Moreover, in test [2], the “H1650 CTG-3D EC50” value worked out at 0.79 µg/mL and the “H1650 GFP Flourescence EC50” value stood at 0.36 µg/mL.

B3: AbA-YY (antibody, human IgG1, kappa, V domains shown)
VH: B1 VH with W105Y
VL: B1 VL with T30N, Y31S, V33I, S52T, H56D, D92A, D93Q
modifications: synthon YY on reduced interchain cysteines; average DAR 2.2 per ADC
Regarding B3, the “huEGFR+ mcl-1-/- MEF EC50” value in test [1] was determined as 0.46 µM. In test [2], the “H1650 CTG-3D EC50” value was above 40 µg/mL and the “H1650 GFP Flourescence EC50” value was 7.85 µg/mL.

B4: AbA-SE (antibody, human IgG1, kappa, V domains shown)
VH: B1 VH with W105Y
VL: B1 VL with T30N, Y31S, V33I, S52T, H56D, D92A, D93Q
modifications: synthon SE on reduced interchain cysteines; average DAR 2.8 per ADC
Take B4: in test [1], the “huEGFR+ mcl-1-/- MEF EC50” value was found to be 0.105 µM. In addition, in test [2], the “H1650 CTG-3D EC50” value was 4 µg/mL and the “H1650 GFP Flourescence EC50” value is 4.23 µg/mL.

B5: AbA-YG (antibody, human IgG1, kappa, V domains shown)
VH: B1 VH with W105Y
VL: B1 VL with T30N, Y31S, V33I, S52T, H56D, D92A, D93Q
modifications: synthon YG on reduced interchain cysteines; average DAR 1.9 per ADC
B5: the “huEGFR+ mcl-1-/- MEF EC50” value in test [1] was determined as 0.0064 µM. Also, in test [2], the “H1650 CTG-3D EC50” value came out at 3.8 µg/mL and the “H1650 GFP Flourescence EC50” value was 2.84 µg/mL.

B6: AbB-KZ (antibody, human IgG1, kappa, V domains shown)
VH: B1 VH with R31N, N55K
VL: B1 VL with T30N, Y31S, V33I, S52T, H56D, D92A, D93Q
modifications: synthon KZ on reduced interchain cysteines; average DAR 1.9 per ADC
In the case of B6, the “huEGFR+ mcl-1-/- MEF EC50” value in test [1] came to 0.055 µM. In test [2], the “H1650 CTG-3D EC50” value was found to be 16.5 µg/mL and the “H1650 GFP Flourescence EC50” value amounted to 37.7 µg/mL.

B7: AbK-YG (antibody, human IgG1, kappa, V domains shown)
VH: B1 VH
VL: B1 VL
modifications: synthon YG on reduced interchain cysteines; average DAR 0.9 per ADC
For the molecule B7, the “huEGFR+ mcl-1-/- MEF EC50” value in test [1] is 0.037 µM. Besides, in test [2], the “H1650 CTG-3D EC50” value was determined as 12.3 µg/mL and the “H1650 GFP Flourescence EC50” value turned out to be 10.4 µg/mL.

B8: AbB-SR (antibody, human IgG1, kappa, V domains shown)
VH: B1 VH with R31N, N55K
VL: B1 VL with T30N, Y31S, V33I, S52T, H56D, D92A, D93Q
modifications: synthon SR on reduced interchain cysteines; average DAR 2.1 per ADC
Take B8: the “huEGFR+ mcl-1-/- MEF EC50” value in test [1] was found to be 0.007 µM. Further, in test [2], the “H1650 CTG-3D EC50” value amounted to 0.62 µg/mL and the “H1650 GFP Flourescence EC50” value was determined as 2.1 µg/mL.

B9: AbG-YG (antibody, human IgG1, kappa, V domains shown)
VH: B1 VH with R31N, P41L, N55K, F103L, W105Y
VL: B1 VL with V33I, S52A, H56D, D93E
modifications: synthon YG on reduced interchain cysteines; average DAR 3.7 per ADC
Regarding B9, the “huEGFR+ mcl-1-/- MEF EC50” value in test [1] was 0.001 µM. For the same molecule, in test [2], the “H1650 CTG-3D EC50” value was found to be 1.24 µg/mL and the “H1650 GFP Flourescence EC50” value was determined as 0.63 µg/mL.

B10: AbB-ZZ (antibody, human IgG1, kappa, V domains shown)
VH: B1 VH with R31N, N55K
VL: B1 VL with T30N, Y31S, V33I, S52T, H56D, D92A, D93Q
modifications: synthon ZZ on reduced interchain cysteines; average DAR 1.1 per ADC
Take B10: the “huEGFR+ mcl-1-/- MEF EC50” value in test [1] is 0.0074 µM. In addition, in test [2], the “H1650 CTG-3D EC50” value stood at 0.52 µg/mL and the “H1650 GFP Flourescence EC50” value was 0.61 µg/mL.

B11: AbA-SR (antibody, human IgG1, kappa, V domains shown)
VH: B1 VH with W105Y
VL: B1 VL with T30N, Y31S, V33I, S52T, H56D, D92A, D93Q
modifications: synthon SR on reduced interchain cysteines; average DAR 2.3 per ADC
As for B11, the “huEGFR+ mcl-1-/- MEF EC50” value in test [1] came out at 0.0059 µM. In addition, in test [2], the “H1650 CTG-3D EC50” value is 2.12 µg/mL and the “H1650 GFP Flourescence EC50” value turned out to be 2.22 µg/mL.

B12: AbK-KZ (antibody, human IgG1, kappa, V domains shown)
VH: B1 VH
VL: B1 VL
modifications: synthon KZ on reduced interchain cysteines; average DAR 2.3 per ADC
As for B12, in test [1], the “huEGFR+ mcl-1-/- MEF EC50” value turned out to be 0.224 µM. For the same molecule, in test [2], the “H1650 CTG-3D EC50” value was above 40 µg/mL and the “H1650 GFP Flourescence EC50” value is above 40 µg/mL.

B13: AbK-XW (antibody, human IgG1, kappa, V domains shown)
VH: B1 VH
VL: B1 VL
modifications: synthon XW on reduced interchain cysteines; average DAR 2.8 per ADC
As for B13, the “huEGFR+ mcl-1-/- MEF EC50” value in test [1] was 0.0006 µM. For the same molecule, in test [2], the “H1650 CTG-3D EC50” value is above 40 µg/mL and the “H1650 GFP Flourescence EC50” value stood at 8.53 µg/mL.

B14: AbB-XW (antibody, human IgG1, kappa, V domains shown)
VH: B1 VH with R31N, N55K
VL: B1 VL with T30N, Y31S, V33I, S52T, H56D, D92A, D93Q
modifications: synthon XW on reduced interchain cysteines; average DAR 3.2 per ADC
Take B14: in test [1], the “huEGFR+ mcl-1-/- MEF EC50” value was 0.00065 µM. Also, in test [2], the “H1650 CTG-3D EC50” value was 6.92 µg/mL and the “H1650 GFP Flourescence EC50” value turned out to be 12.1 µg/mL.

B15: AbA-XW (antibody, human IgG1, kappa, V domains shown)
VH: B1 VH with W105Y
VL: B1 VL with T30N, Y31S, V33I, S52T, H56D, D92A, D93Q
modifications: synthon XW on reduced interchain cysteines; average DAR 3.7 per ADC
Consider B15, for which, in test [1], the “huEGFR+ mcl-1-/- MEF EC50” value worked out at 0.032 µM. Besides, in test [2], the “H1650 CTG-3D EC50” value is above 40 µg/mL and the “H1650 GFP Flourescence EC50” value was above 40 µg/mL.

B16: AbB-SE (antibody, human IgG1, kappa, V domains shown)
VH: B1 VH with R31N, N55K
VL: B1 VL with T30N, Y31S, V33I, S52T, H56D, D92A, D93Q
modifications: synthon SE on reduced interchain cysteines; average DAR 2.2 per ADC
B16: the “huEGFR+ mcl-1-/- MEF EC50” value in test [1] was determined as 0.039 µM. In addition, in test [2], the “H1650 CTG-3D EC50” value stood at 0.59 µg/mL and the “H1650 GFP Flourescence EC50” value came out at 2.18 µg/mL.

(Values after patent US20240199745A1, “ANTI-EGFR ANTIBODY DRUG CONJUGATES” (priority 2016, published 2024).)
